Laboratory results reported in US20090180995A1, “NOVEL ANTICOAGULANT POLYPEPTIDES AND COMPLEX” (National University of Singapore, priority 2005, published 2009).

Tests used:
plasma [1] = assay: Stypven time; type: biochemical; conditions: human plasma, RVV
Procedure: (§1) Anticoagulant activity—The anticoagulant activities of H. haemachatus venom and its fractions was determined by four coagulation tests using a BBL fibrometer: • 1. Recalcification time: The recalcification times were determined according to the method of Langdell et al. (25). 50 mM Tris-HCl buffer (pH 7.4) (100 μl), plasma (100 μl) and various concentrations of venom or its fraction (50 μl) were preincubated for 2 min at 37° C. Clotting was initiated by the addition of 50 μl of 50 mM CaCl2. • 2. Prothrombin time: The prothrombin times were measured according to the method of Quick (26). […] Clotting was initiated by the addition of thromboplastin with calcium reagent (150 μl) which can be purchased from Sigma (St. Louis, Mo., USA). • For studying the role of electrostatic interactions, the anticoagulant activity of a specific concentration of hemextin A (4.4 μM), hemextin B (4.4 μM) and hemextin AB complex (0.11 μM) was monitored in 50 mM Tris-HCl (pH 7.4) containing various concentrations of NaCl (35 mM to 150 mM). • For studying the role of hydrophobic interactions, the anticoagulant activity of a specific concentration of hemextin A (4.4 μM), hemextin B (4.4 μM) and hemextin AB complex (0.11 μM) was monitored in 50 mM Tris-HCl (pH 7.4) containing various concentrations of glycerol (125 mM to 250 mM). • 2. […] Thrombin time: Thrombin time was determined according to the method of Jim (28). […]

plasma [2] = assay: Thrombin time; type: biochemical; conditions: human plasma, thrombin reagent
Procedure: as §1

FVIIa-sTF = molecular target: T1, FVIIa-sTF (Homo sapiens, UniProt P08709); assay: FVIIa-sTF amidolytic activity; type: biochemical; conditions: FVIIa-sTF (30 nM)/S-2288
T1 construct: made in house; host or cells: Saccharomyces cerevisiae (sTF); human plasma (FVIIa)
T1 sequence (P08709 61-212 limits assumed): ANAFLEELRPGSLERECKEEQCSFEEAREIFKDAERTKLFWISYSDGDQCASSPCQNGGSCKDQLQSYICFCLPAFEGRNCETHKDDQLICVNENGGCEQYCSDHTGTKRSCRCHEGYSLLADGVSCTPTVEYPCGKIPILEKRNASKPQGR
T1 sequence (P08709 213-466 limits assumed): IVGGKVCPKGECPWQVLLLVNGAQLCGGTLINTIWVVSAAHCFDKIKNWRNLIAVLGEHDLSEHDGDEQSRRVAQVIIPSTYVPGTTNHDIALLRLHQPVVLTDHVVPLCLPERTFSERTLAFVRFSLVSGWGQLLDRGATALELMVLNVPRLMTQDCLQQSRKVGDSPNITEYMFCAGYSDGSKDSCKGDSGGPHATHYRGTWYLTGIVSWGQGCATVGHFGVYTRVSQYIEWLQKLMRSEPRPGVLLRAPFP
T1 sequence (P13726 33-251 partner limits assumed): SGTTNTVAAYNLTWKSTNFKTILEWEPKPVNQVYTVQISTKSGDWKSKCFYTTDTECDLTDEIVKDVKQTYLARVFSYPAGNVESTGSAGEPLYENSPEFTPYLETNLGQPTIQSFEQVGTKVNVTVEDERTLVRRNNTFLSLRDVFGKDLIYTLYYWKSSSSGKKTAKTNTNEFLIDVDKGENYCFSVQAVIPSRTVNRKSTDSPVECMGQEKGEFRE
Procedure: Serine protease specificity—The selectivity profile of anticoagulant proteins and their complex was examined against 12 serine proteases—procoagulant serine proteases (FIXa, FXa, FXIa, FXIIa, plasma kallikrein and thrombin), anticoagulant serine protease (APC), fibrinolytic serine proteases (urokinase, t-PA and plasmin) and classical serine proteases (trypsin and chymotrypsin). Various concentrations of purified hemextin A/hemextin B and reconstituted hemextin AB complex were preincubated with each of the enzymes (Table 1) for a period of five minutes at a temperature of 37° C., followed by the addition of appropriate chromogenic substrate.
For studies with FXIa, kallikrein and urokinase, the appropriate substrates were determined prior to their screening against the inhibitors. For FXIa, the Vmax for the amidolytic activity corresponding to the chromogenic substrates S-2266, S-2302 and S-2366 was determined. S-2302 was the substrate with the highest Vmax and thus was used in the screening studies. Similar studies with kallikrein and urokinase were carried out with substrates S-2266, S-2302 and S-2288 for kallikrein and S-2444 and S-2484 for urokinase. […] The kinetic rate of substrate hydrolysis (mOD/min) was measured over 5 min.

[3] = tested on: hemextin A-hemextin B interaction; assay: ITC, hemextin A-hemextin B interaction; type: binding, Hemachatus haemachatus
[4] = Size exclusion chromatography of hemextin AB complex in different buffers; type: physicochemical
Procedure: Size exclusion chromatography (SEC) studies—All SEC experiments were carried out at room temperature on a pre-packed Superdex 75 gel filtration column (1.6×60 cm) using a ÄKTA Purifier system (Amersham Biosciences, Uppsala, Sweden). The column was eluted with 50 mM Tris-HCl buffer (pH 7.4) or the specified elution buffer, at a flow rate of 1 ml/min. The sample volume applied to the column was 4 ml. The column was calibrated using ovomucoid (28 kD) ribonuclease (15.6 KD), cytochrome C (12 KD), apoprotinin (7 KD) and pelovaterin (4 KD) (20) as molecular weight markers. The void volume was determined by running Blue Dextran. The column was equilibrated with at least two bed volumes of the elution buffer prior to each run. Electrostatic contributions in the hemextin AB complex formation were studied by monitoring its elution in 50 mM Tris-HCl buffer (pH 7.4) of different concentrations of NaCl (75 mM and 150 mM). Hydrophobic contributions for the complex formation were determined by recording its elution in 50 mM Tris-HCl buffer (pH 7.4). In both studies, the column was first equilibrated with the desired buffer prior to the application of the reconstituted hemextin AB complex in the respective buffer to the column. Elution of protein was monitored by absorbance at 280 nm.

| Molecule | clotting time, Stypven time (plasma [1]) | clotting time, thrombin time (plasma [2]) | inhibition of FVIIa-sTF amidolytic activity (FVIIa-sTF) | Ka ([3]; 10 ° C., 50 mM Tris (pH 7.4)) [M⁻¹] | Ka ([3]; 25 ° C., 50 mM Tris (pH 7.4)) [M⁻¹] | Ka ([3]; 37 ° C., 50 mM Tris (pH 7.4)) [M⁻¹] | Ka ([3]; 37 ° C., 50 mM Tris (pH 7.4) + 35 mM NaCl) [M⁻¹] | Ka ([3]; 37 ° C., 50 mM Tris (pH 7.4) + 75 mM NaCl) [M⁻¹] | Ka ([3]; 37 ° C., 50 mM Tris (pH 7.4) + 100 mM NaCl) [M⁻¹] | Ka ([3]; 37 ° C., 50 mM Tris (pH 7.4) + 125 mM glycerol) [M⁻¹] | Ka ([3]; 37 ° C., 50 mM Tris (pH 7.4) + 150 mM NaCl) [M⁻¹] | Ka ([3]; 37 ° C., 50 mM Tris (pH 7.4) + 175 mM glycerol) [M⁻¹] | Ka ([3]; 37 ° C., 50 mM Tris (pH 7.4) + 250 mM glycerol) [M⁻¹] | Ka ([3]; 45 ° C., 50 mM Tris (pH 7.4)) [M⁻¹] | binding constant (Ka), hemextin AB complex formation ([3]; ITC) [M⁻¹] | SEC elution of the complex, 75 mM NaCl ([4]; 50 mM Tris-HCl (pH 7.4), 75 mM NaCl) | SEC elution of the complex, 150 mM NaCl ([4]; 50 mM Tris-HCl (pH 7.4), NaCl 150 mM) | SEC elution of the complex, high glycerol concentration ([4]; Superdex 75, buffers containing glycerol) |
| --- | --- | --- | --- | --- | --- | --- | --- | --- | --- | --- | --- | --- | --- | --- | --- | --- | --- | --- |
| hemextin A (protein) LKCKNKLVPFLSKTCPEGKNLCYKMTMLKMPKIPIKRGCTDACPKSSLLVKVVCCNKDKCN | did not prolong | did not prolong | potent inhibitory activity |  |  |  |  |  |  |  |  |  |  |  |  |  |  |  |
| hemextin AB complex: synergistic 1:1 tetrameric complex of hemextin A and hemextin B, reconstituted from equimolar proteins (protein) chain 1: LKCKNKLVPFLSKTCPEGKNLCYKMTMLKMPKIPIKRGCTDACPKSSLLVKVVCCNKDKCN chain 2: LKCKNKVVPFLKCKNKVVPFLCYKMTLKKVPKIPIKRGCTDACPKSSLLVNVMCCKTDKCN |  |  | potent inhibitory activity | 640000 | 2.07e+06 | 2.23e+06 | 630000 | 330000 | 20000 | 320000 | 2000 | 200000 | 50000 | 1.97e+06 | 2.23e+06 | the tetramer starts breaking down to dimer | eluted mostly as a dimer and monomer | the tetramer breaks down to dimer and monomers |
| hemextin B (protein) LKCKNKVVPFLKCKNKVVPFLCYKMTLKKVPKIPIKRGCTDACPKSSLLVNVMCCKTDKCN | did not prolong clotting times | did not prolong clotting times |  |  |  |  |  |  |  |  |  |  |  |  |  |  |  |  |
